Paper PMC7679967 (Protein Science : A Publication of the Protein Society, 2020)

Molecular target: human Hsp90β (HSP90AB1) (human, UniProt P08238 1-724)
Assay: ITC

Chain of human Hsp90β (HSP90AB1) (P08238 whole entry): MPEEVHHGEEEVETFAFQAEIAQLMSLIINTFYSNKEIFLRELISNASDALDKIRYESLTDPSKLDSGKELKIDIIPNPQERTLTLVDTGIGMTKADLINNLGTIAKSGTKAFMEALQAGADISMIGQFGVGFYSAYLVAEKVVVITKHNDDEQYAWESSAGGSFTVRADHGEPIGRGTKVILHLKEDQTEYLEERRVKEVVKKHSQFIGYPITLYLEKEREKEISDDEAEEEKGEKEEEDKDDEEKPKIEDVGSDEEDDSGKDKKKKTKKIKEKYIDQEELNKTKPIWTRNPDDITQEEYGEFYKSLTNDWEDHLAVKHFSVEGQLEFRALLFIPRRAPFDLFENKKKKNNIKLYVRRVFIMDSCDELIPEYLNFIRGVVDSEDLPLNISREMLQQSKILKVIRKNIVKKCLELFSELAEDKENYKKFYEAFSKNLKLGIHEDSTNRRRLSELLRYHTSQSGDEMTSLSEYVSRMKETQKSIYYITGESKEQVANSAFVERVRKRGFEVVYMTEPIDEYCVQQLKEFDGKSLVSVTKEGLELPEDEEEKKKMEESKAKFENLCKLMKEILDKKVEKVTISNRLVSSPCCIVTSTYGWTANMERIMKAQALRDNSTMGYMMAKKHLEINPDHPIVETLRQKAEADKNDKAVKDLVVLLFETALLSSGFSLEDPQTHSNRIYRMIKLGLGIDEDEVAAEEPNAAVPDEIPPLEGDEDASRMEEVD

- Kd: 3.59 µM
- stoichiometry N: 0.5
B1: Hop112a (Hop aa. 1-352; TPR1, DP1 and TPR2A) (domain or fragment)
chain: not shown
